# Laboratory results taken from patent US20050064507.
# T1: PPP1R14A peptide QKRHARVTVKYDRRE (SEQ ID NO:107) (not fully specified)
# T1 chain: QKRHARVTVKYDRRE
# T2: PLEK peptide KFARKSTRRSIRLPE (SEQ ID NO:78) (not fully specified)
# T2 chain: KFARKSTRRSIRLPE
# T3: MGC2941 peptide RPTPGDGEKRSRIKKSKKRK (SEQ ID NO:139) (not fully specified)
# T3 chain: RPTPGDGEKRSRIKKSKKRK
# T4: cyclophilin G peptide TEEKSKKRKKKHRKNSRKHK (SEQ ID NO:165) (not fully specified)
# T4 chain: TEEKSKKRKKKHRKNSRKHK
# T5: MARCKS peptide KKRFSFKKSFKLSGFSFKKN (SEQ ID NO:123) (not fully specified)
# T5 chain: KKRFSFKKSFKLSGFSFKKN
# T6: dag kinase iota peptide PQNSLKASNRKKKRTSFKRK (SEQ ID NO:151) (not fully specified)
# T6 chain: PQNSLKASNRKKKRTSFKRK
# T7: NMDAR1 peptide RAITSTLASSFKRRR (SEQ ID NO:122) (not fully specified)
# T7 chain: RAITSTLASSFKRRR
# T8: Myt1 kinase peptide PPRTPGWHQLQPRRVSFRGE (SEQ ID NO:163) (not fully specified)
# T8 chain: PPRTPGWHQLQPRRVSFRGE
# T9: MCM2 peptide VQRHRSMRKTFARYLSFRRD (SEQ ID NO:129) (not fully specified)
# T9 chain: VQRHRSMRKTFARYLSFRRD
# T10: titin peptide PFEVVWYKDKRQLRSSKKYK (SEQ ID NO:160) (not fully specified)
# T10 chain: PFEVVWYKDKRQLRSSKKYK
# T11: splicing factor, arginine/serine-rich 4 peptide RSRSRSRSKSKDKRKSRKRS (SEQ ID NO:134) (not fully specified)
# T11 chain: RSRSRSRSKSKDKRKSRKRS
# T12: PARIS1 peptide EYLERRASRRRAV (SEQ ID NO:89) (not fully specified)
# T12 chain: EYLERRASRRRAV
# T13: ARHGAP6 peptide SAQITIPKDGQKRKKSLRKK (SEQ ID NO:156) (not fully specified)
# T13 chain: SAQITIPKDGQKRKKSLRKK
# T14: PARIS1 peptide RELEQLKAEYLERRASRRRA (SEQ ID NO:148) (not fully specified)
# T14 chain: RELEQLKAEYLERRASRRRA
# T15: MLK3 peptide HVRRRRGTFKRSKLRARD (SEQ ID NO:76) (not fully specified)
# T15 chain: HVRRRRGTFKRSKLRARD
# T16: phospholemman peptide EEGTFRSSIRRLSTRRR (SEQ ID NO:116) (not fully specified)
# T16 chain: EEGTFRSSIRRLSTRRR
# T17: SYTL4 peptide RQGKRKTSIKRDTVNPL (SEQ ID NO:87) (not fully specified)
# T17 chain: RQGKRKTSIKRDTVNPL
# T18: MAP3K14 peptide WKGKRRSKARKKRK (SEQ ID NO:100) (not fully specified)
# T18 chain: WKGKRRSKARKKRK
# T19: dag kinase iota peptide NRKKKRTSFKRKA (SEQ ID NO:117) (not fully specified)
# T19 chain: NRKKKRTSFKRKA
# T20: NF1 peptide SQVQKQRSAGSFKRNSIKKI (SEQ ID NO:127) (not fully specified)
# T20 chain: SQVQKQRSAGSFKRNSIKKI
# T21: CACNA1C peptide RGFLRSASLGRRASFHLE (SEQ ID NO:96) (not fully specified)
# T21 chain: RGFLRSASLGRRASFHLE
# T22: p164-RhoGEF peptide PRLIRRGSKKRPAR (SEQ ID NO:82) (not fully specified)
# T22 chain: PRLIRRGSKKRPAR
# T23: pleckstrin 1 peptide KAIKAIEGGQKFARKSTRRS (SEQ ID NO:126) (not fully specified)
# T23 chain: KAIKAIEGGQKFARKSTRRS
# T24: ubiquitin specific protease 8 peptide RARRDSLKKIEIW (SEQ ID NO:136) (not fully specified)
# T24 chain: RARRDSLKKIEIW
# T25: PKD1 peptide RVVQSVKHTKRKSSTVMK (SEQ ID NO:149) (not fully specified)
# T25 chain: RVVQSVKHTKRKSSTVMK
# T26: p164-RhoGEF peptide PRLIRRGSKKRPAR (SEQ ID NO:124) (not fully specified)
# T26 chain: PRLIRRGSKKRPAR
# T27: LIMK-2 peptide LRRRSLRRSNSISKSPGP (SEQ ID NO:121) (not fully specified)
# T27 chain: LRRRSLRRSNSISKSPGP
# T28: EBNA1BP2 peptide KRPGKKGSNKRPGKR (SEQ ID NO:112) (not fully specified)
# T28 chain: KRPGKKGSNKRPGKR
# T29: slp4 peptide TYLLPDKSRQGKRKTSIKRD (SEQ ID NO:153) (not fully specified)
# T29 chain: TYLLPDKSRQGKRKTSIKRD
# T30: NF1 peptide AGSFKRNSIKKIV (SEQ ID NO:102) (not fully specified)
# T30 chain: AGSFKRNSIKKIV
# Columns and labels:
# [1] = biological target: T1, PPP1R14A peptide QKRHARVTVKYDRRE (SEQ …)
# [2] = biological target: T2, PLEK peptide KFARKSTRRSIRLPE (SEQ ID …)
# [3] = biological target: T3, MGC2941 peptide RPTPGDGEKRSRIKKSKKRK …
# [4] = biological target: T4, cyclophilin G peptide …
# [5] = biological target: T5, MARCKS peptide KKRFSFKKSFKLSGFSFKKN …
# [6] = biological target: T6, dag kinase iota peptide …
# [7] = biological target: T7, NMDAR1 peptide RAITSTLASSFKRRR (SEQ ID …)
# [8] = biological target: T8, Myt1 kinase peptide …
# [9] = biological target: T9, MCM2 peptide VQRHRSMRKTFARYLSFRRD (SEQ …)
# [10] = biological target: T10, titin peptide PFEVVWYKDKRQLRSSKKYK (SEQ …)
# [11] = biological target: T11, splicing factor, arginine/serine-rich 4 …
# [12] = biological target: T12, PARIS1 peptide EYLERRASRRRAV (SEQ ID …)
# [13] = biological target: T13, ARHGAP6 peptide SAQITIPKDGQKRKKSLRKK …
# [14] = biological target: T14, PARIS1 peptide RELEQLKAEYLERRASRRRA …
# [15] = biological target: T15, MLK3 peptide HVRRRRGTFKRSKLRARD (SEQ ID …)
# [16] = biological target: T16, phospholemman peptide EEGTFRSSIRRLSTRRR …
# [17] = biological target: T17, SYTL4 peptide RQGKRKTSIKRDTVNPL (SEQ ID …)
# [18] = biological target: T18, MAP3K14 peptide WKGKRRSKARKKRK (SEQ ID …)
# [19] = biological target: T19, dag kinase iota peptide NRKKKRTSFKRKA …
# [20] = biological target: T20, NF1 peptide SQVQKQRSAGSFKRNSIKKI (SEQ …)
# [21] = biological target: T21, CACNA1C peptide RGFLRSASLGRRASFHLE (SEQ …)
# [22] = biological target: T22, p164-RhoGEF peptide PRLIRRGSKKRPAR (SEQ …)
# [23] = biological target: T23, pleckstrin 1 peptide …
# [24] = biological target: T24, ubiquitin specific protease 8 peptide …
# [25] = biological target: T25, PKD1 peptide RVVQSVKHTKRKSSTVMK (SEQ ID …)
# [26] = biological target: T26, p164-RhoGEF peptide PRLIRRGSKKRPAR (SEQ …)
# [27] = biological target: T27, LIMK-2 peptide LRRRSLRRSNSISKSPGP (SEQ …)
# [28] = biological target: T28, EBNA1BP2 peptide KRPGKKGSNKRPGKR (SEQ …)
# [29] = biological target: T29, slp4 peptide TYLLPDKSRQGKRKTSIKRD (SEQ …)
# [30] = biological target: T30, NF1 peptide AGSFKRNSIKKIV (SEQ ID …)
protein,measurement,setting,value
PKC-zeta (protein) MPSRTGPKMEGSGGRVRLKAHYGGDIFITSVDAATTFEELCEEVRDMCRLHQQHPLTLKWVDSEGDPCTVSSQMELEEAFRLARQCRDEGLIIHVFPSTPEQPGLPCPGEDKSIYRRGARRWRKLYRANGHLFQAKRFNRRAYCGQCSERIWGLARQGYRCINCKLLVHKRCHGLVPLTCRKHMDSVMPSQEPPVDDKNEDADLPSEETDGIAYISSSRKHDSIKDDSEDLKPVIDGMDGIKISQGLGLQDFDLIRVIGRGSYAKVLLVRLKKNDQIYAMKVVKKELVHDDEDIDWVQTEKHVFEQASSNPFLVGLHSCFQTTSRLFLVIEYVNGGDLMFHMQRQRKLPEEHARFYAAEICIALNFLHERGIIYRDLKLDNVLLDADGHIKLTDYGMCKEGLGPGDTTSTFCGTPNYIAPEILRGEEYGFSVDWWALGVLMFEMMAGRSPFDIITDNPDMNTEDYLFQVILEKPIRIPRFLSVKASHVLKGFLNKDPKERLGCRPQTGFSDIKSHAFFRSIDWDLLEKKQALPPFQPQITDDYGLDNFDTQFTSEPVQLTPDDEDAIKRIDQSEFEGFEYINPLLLSTEESV,in vitro phosphorylation (% of best substrate),[1],1
same,in vitro phosphorylation (% of best substrate),[2],100
same,"in vitro phosphorylation, 1 uM peptide (% of best substrate)",[3],1
same,"in vitro phosphorylation, 10 uM peptide (% of best substrate)",[3],1
same,"in vitro phosphorylation, 1 uM peptide (% of best substrate)",[4],1
same,"in vitro phosphorylation, 10 uM peptide (% of best substrate)",[4],2
same,"in vitro phosphorylation, 1 uM peptide (% of best substrate)",[5],20
same,"in vitro phosphorylation, 10 uM peptide (% of best substrate)",[5],20
same,"in vitro phosphorylation, 1 uM peptide (% of best substrate)",[6],15
same,"in vitro phosphorylation, 10 uM peptide (% of best substrate)",[6],28
same,"in vitro phosphorylation, 1 uM peptide (% of best substrate)",[7],20
same,"in vitro phosphorylation, 10 uM peptide (% of best substrate)",[7],17
same,"in vitro phosphorylation, 1 uM peptide (% of best substrate)",[8],7
same,"in vitro phosphorylation, 10 uM peptide (% of best substrate)",[8],26
same,"in vitro phosphorylation, 1 uM peptide (% of best substrate)",[9],51
same,"in vitro phosphorylation, 10 uM peptide (% of best substrate)",[9],31
same,"in vitro phosphorylation, 1 uM peptide (% of best substrate)",[10],15
same,"in vitro phosphorylation, 10 uM peptide (% of best substrate)",[10],57
same,"in vitro phosphorylation, 1 uM peptide (% of best substrate)",[11],5
same,"in vitro phosphorylation, 10 uM peptide (% of best substrate)",[11],5
same,in vitro phosphorylation (% of best substrate),[12],14
same,"in vitro phosphorylation, 1 uM peptide (% of best substrate)",[13],15
same,"in vitro phosphorylation, 10 uM peptide (% of best substrate)",[13],44
same,"in vitro phosphorylation, 1 uM peptide (% of best substrate)",[14],20
same,"in vitro phosphorylation, 10 uM peptide (% of best substrate)",[14],20
same,in vitro phosphorylation (% of best substrate),[15],41
same,"in vitro phosphorylation, 1 uM peptide (% of best substrate)",[16],100
same,"in vitro phosphorylation, 10 uM peptide (% of best substrate)",[16],100
same,in vitro phosphorylation (% of best substrate),[17],3
same,in vitro phosphorylation (% of best substrate),[18],8
same,"in vitro phosphorylation, 1 uM peptide (% of best substrate)",[19],20
same,"in vitro phosphorylation, 10 uM peptide (% of best substrate)",[19],11
same,"in vitro phosphorylation, 1 uM peptide (% of best substrate)",[20],19
same,"in vitro phosphorylation, 10 uM peptide (% of best substrate)",[20],19
same,in vitro phosphorylation (% of best substrate),[21],22
same,in vitro phosphorylation (% of best substrate),[22],38
same,"in vitro phosphorylation, 1 uM peptide (% of best substrate)",[23],46
same,"in vitro phosphorylation, 10 uM peptide (% of best substrate)",[23],56
same,"in vitro phosphorylation, 1 uM peptide (% of best substrate)",[24],6
same,"in vitro phosphorylation, 10 uM peptide (% of best substrate)",[24],9
same,"in vitro phosphorylation, 1 uM peptide (% of best substrate)",[25],3
same,"in vitro phosphorylation, 10 uM peptide (% of best substrate)",[25],5
same,"in vitro phosphorylation, 1 uM peptide (% of best substrate)",[26],45
same,"in vitro phosphorylation, 10 uM peptide (% of best substrate)",[26],32
same,"in vitro phosphorylation, 1 uM peptide (% of best substrate)",[27],60
same,"in vitro phosphorylation, 10 uM peptide (% of best substrate)",[27],56
same,in vitro phosphorylation (% of best substrate),[28],1
same,"in vitro phosphorylation, 1 uM peptide (% of best substrate)",[29],6
same,"in vitro phosphorylation, 10 uM peptide (% of best substrate)",[29],13
same,in vitro phosphorylation (% of best substrate),[30],2
